Results published in patent publication US20200087373A1 (UNIVERSITY OF COPENHAGEN, published 2020).
Ends that are not written are not given here. * marks the point of attachment. C16 diacid = O=C(O)CCCCCCCCCCCCCCC(=O)*; Stearoyl = CCCCCCCCCCCCCCCCCC(=O)*; Palmitoyl = CCCCCCCCCCCCCCCC(=O)*; Myristoyl = CCCCCCCCCCCCCC(=O)*; Lauroyl = CCCCCCCCCCCC(=O)*

B1: AT106 [hGIP(3-30)NH2-C16/30] (peptide)
peptide: EGTFISDYSIAMDKIHQQDFVNWLLAQK(Palmitoyl)-NH2
B2: AT110 [hGIP(3-30)NH2-C14/3] (peptide)
peptide: Myristoyl-EGTFISDYSIAMDKIHQQDFVNWLLAQK-NH2
B3: AT154 [hGIP(3-30)NH2-C12/16] (peptide)
peptide: EGTFISDYSIAMDK(Lauroyl)IHQQDFVNWLLAQK-NH2
notes: printed with the same formula as AT102 but a different ID and different values
B4: AT105 [hGIP(3-30)NH2-C16/16] (peptide)
peptide: EGTFISDYSIAMDK(Palmitoyl)IHQQDFVNWLLAQK-NH2
B5: AT115 [hGIP(3-30)NH2-C18/30] (peptide)
peptide: EGTFISDYSIAMDKIHQQDFVNWLLAQK(Stearoyl)-NH2
B6: AT102 [hGIP(3-30)NH2-C12/16] (peptide)
peptide: EGTFISDYSIAMDK(Lauroyl)IHQQDFVNWLLAQK-NH2
B7: AT104 [hGIP(3-30)NH2-C16/3] (peptide)
peptide: Palmitoyl-EGTFISDYSIAMDKIHQQDFVNWLLAQK-NH2
B8: AT103 [hGIP(3-30)NH2-C12/30] (peptide)
peptide: EGTFISDYSIAMDKIHQQDFVNWLLAQK(Lauroyl)-NH2
B9: AT120 [hGIP(5-30)NH2-C12/30] (peptide)
peptide: TFISDYSIAMDKIHQQDFVNWLLAQK(Lauroyl)-NH2
modifications: N-terminus assumed
SMILES: CCCCCCCCCCCC(=O)NCCCC[C@H](NC(=O)[C@H](CCC(N)=O)NC(=O)[C@H](C)NC(=O)[C@H](CC(C)C)NC(=O)[C@H](CC(C)C)NC(=O)[C@H](Cc1c[nH]c2ccccc12)NC(=O)[C@H](CC(N)=O)NC(=O)[C@@H](NC(=O)[C@H](Cc1ccccc1)NC(=O)[C@H](CC(=O)O)NC(=O)[C@H](CCC(N)=O)NC(=O)[C@H](CCC(N)=O)NC(=O)[C@H](Cc1c[nH]cn1)NC(=O)[C@@H](NC(=O)[C@H](CCCCN)NC(=O)[C@H](CC(=O)O)NC(=O)[C@H](CCSC)NC(=O)[C@H](C)NC(=O)[C@@H](NC(=O)[C@H](CO)NC(=O)[C@H](Cc1ccc(O)cc1)NC(=O)[C@H](CC(=O)O)NC(=O)[C@H](CO)NC(=O)[C@@H](NC(=O)[C@H](Cc1ccccc1)NC(=O)[C@@H](N)[C@@H](C)O)[C@@H](C)CC)[C@@H](C)CC)[C@@H](C)CC)C(C)C)C(N)=O
B10: AT112 [hGIP(3-30)NH2-C14/30] (peptide)
peptide: EGTFISDYSIAMDKIHQQDFVNWLLAQK(Myristoyl)-NH2
B11: AT123 [hGIP(5-30)NH2-C14/30] (peptide)
peptide: TFISDYSIAMDKIHQQDFVNWLLAQK(Myristoyl)-NH2
modifications: N-terminus assumed
SMILES: CCCCCCCCCCCCCC(=O)NCCCC[C@H](NC(=O)[C@H](CCC(N)=O)NC(=O)[C@H](C)NC(=O)[C@H](CC(C)C)NC(=O)[C@H](CC(C)C)NC(=O)[C@H](Cc1c[nH]c2ccccc12)NC(=O)[C@H](CC(N)=O)NC(=O)[C@@H](NC(=O)[C@H](Cc1ccccc1)NC(=O)[C@H](CC(=O)O)NC(=O)[C@H](CCC(N)=O)NC(=O)[C@H](CCC(N)=O)NC(=O)[C@H](Cc1c[nH]cn1)NC(=O)[C@@H](NC(=O)[C@H](CCCCN)NC(=O)[C@H](CC(=O)O)NC(=O)[C@H](CCSC)NC(=O)[C@H](C)NC(=O)[C@@H](NC(=O)[C@H](CO)NC(=O)[C@H](Cc1ccc(O)cc1)NC(=O)[C@H](CC(=O)O)NC(=O)[C@H](CO)NC(=O)[C@@H](NC(=O)[C@H](Cc1ccccc1)NC(=O)[C@@H](N)[C@@H](C)O)[C@@H](C)CC)[C@@H](C)CC)[C@@H](C)CC)C(C)C)C(N)=O
B12: AT158 [hGIP(3-30)NH2[H18K]-C16diacid/18] (peptide)
peptide: EGTFISDYSIAMDKIK(C16 diacid)QQDFVNWLLAQK-NH2
modifications: N-terminus assumed
SMILES: CC[C@H](C)[C@H](NC(=O)[C@H](CO)NC(=O)[C@H](Cc1ccc(O)cc1)NC(=O)[C@H](CC(=O)O)NC(=O)[C@H](CO)NC(=O)[C@@H](NC(=O)[C@H](Cc1ccccc1)NC(=O)[C@@H](NC(=O)CNC(=O)[C@@H](N)CCC(=O)O)[C@@H](C)O)[C@@H](C)CC)C(=O)N[C@@H](C)C(=O)N[C@@H](CCSC)C(=O)N[C@@H](CC(=O)O)C(=O)N[C@@H](CCCCN)C(=O)N[C@H](C(=O)N[C@@H](CCCCNC(=O)CCCCCCCCCCCCCCC(=O)O)C(=O)N[C@@H](CCC(N)=O)C(=O)N[C@@H](CCC(N)=O)C(=O)N[C@@H](CC(=O)O)C(=O)N[C@@H](Cc1ccccc1)C(=O)N[C@H](C(=O)N[C@@H](CC(N)=O)C(=O)N[C@@H](Cc1c[nH]c2ccccc12)C(=O)N[C@@H](CC(C)C)C(=O)N[C@@H](CC(C)C)C(=O)N[C@@H](C)C(=O)N[C@@H](CCC(N)=O)C(=O)N[C@@H](CCCCN)C(N)=O)C(C)C)[C@@H](C)CC
B13: AT163 [hGIP(3-30)NH2[H18K]-C16/16] (peptide)
peptide: EGTFISDYSIAMDK(Palmitoyl)IKQQDFVNWLLAQK-NH2
modifications: N-terminus assumed
SMILES: CCCCCCCCCCCCCCCC(=O)NCCCC[C@H](NC(=O)[C@H](CC(=O)O)NC(=O)[C@H](CCSC)NC(=O)[C@H](C)NC(=O)[C@@H](NC(=O)[C@H](CO)NC(=O)[C@H](Cc1ccc(O)cc1)NC(=O)[C@H](CC(=O)O)NC(=O)[C@H](CO)NC(=O)[C@@H](NC(=O)[C@H](Cc1ccccc1)NC(=O)[C@@H](NC(=O)CNC(=O)[C@@H](N)CCC(=O)O)[C@@H](C)O)[C@@H](C)CC)[C@@H](C)CC)C(=O)N[C@H](C(=O)N[C@@H](CCCCN)C(=O)N[C@@H](CCC(N)=O)C(=O)N[C@@H](CCC(N)=O)C(=O)N[C@@H](CC(=O)O)C(=O)N[C@@H](Cc1ccccc1)C(=O)N[C@H](C(=O)N[C@@H](CC(N)=O)C(=O)N[C@@H](Cc1c[nH]c2ccccc12)C(=O)N[C@@H](CC(C)C)C(=O)N[C@@H](CC(C)C)C(=O)N[C@@H](C)C(=O)N[C@@H](CCC(N)=O)C(=O)N[C@@H](CCCCN)C(N)=O)C(C)C)[C@@H](C)CC
B14: AT159 [hGIP(3-30)NH2[K16R; H18K; K30R]-C16diacid/18] (peptide)
peptide: EGTFISDYSIAMDRIK(C16 diacid)QQDFVNWLLAQR-NH2
modifications: N-terminus assumed
SMILES: CC[C@H](C)[C@H](NC(=O)[C@H](CO)NC(=O)[C@H](Cc1ccc(O)cc1)NC(=O)[C@H](CC(=O)O)NC(=O)[C@H](CO)NC(=O)[C@@H](NC(=O)[C@H](Cc1ccccc1)NC(=O)[C@@H](NC(=O)CNC(=O)[C@@H](N)CCC(=O)O)[C@@H](C)O)[C@@H](C)CC)C(=O)N[C@@H](C)C(=O)N[C@@H](CCSC)C(=O)N[C@@H](CC(=O)O)C(=O)N[C@@H](CCCNC(=N)N)C(=O)N[C@H](C(=O)N[C@@H](CCCCNC(=O)CCCCCCCCCCCCCCC(=O)O)C(=O)N[C@@H](CCC(N)=O)C(=O)N[C@@H](CCC(N)=O)C(=O)N[C@@H](CC(=O)O)C(=O)N[C@@H](Cc1ccccc1)C(=O)N[C@H](C(=O)N[C@@H](CC(N)=O)C(=O)N[C@@H](Cc1c[nH]c2ccccc12)C(=O)N[C@@H](CC(C)C)C(=O)N[C@@H](CC(C)C)C(=O)N[C@@H](C)C(=O)N[C@@H](CCC(N)=O)C(=O)N[C@@H](CCCNC(=N)N)C(N)=O)C(C)C)[C@@H](C)CC
B15: AT160 [hGIP(3-30)NH2[H18K]-C18/18] (peptide)
peptide: EGTFISDYSIAMDKIK(Stearoyl)QQDFVNWLLAQK-NH2
modifications: N-terminus assumed
SMILES: CCCCCCCCCCCCCCCCCC(=O)NCCCC[C@H](NC(=O)[C@@H](NC(=O)[C@H](CCCCN)NC(=O)[C@H](CC(=O)O)NC(=O)[C@H](CCSC)NC(=O)[C@H](C)NC(=O)[C@@H](NC(=O)[C@H](CO)NC(=O)[C@H](Cc1ccc(O)cc1)NC(=O)[C@H](CC(=O)O)NC(=O)[C@H](CO)NC(=O)[C@@H](NC(=O)[C@H](Cc1ccccc1)NC(=O)[C@@H](NC(=O)CNC(=O)[C@@H](N)CCC(=O)O)[C@@H](C)O)[C@@H](C)CC)[C@@H](C)CC)[C@@H](C)CC)C(=O)N[C@@H](CCC(N)=O)C(=O)N[C@@H](CCC(N)=O)C(=O)N[C@@H](CC(=O)O)C(=O)N[C@@H](Cc1ccccc1)C(=O)N[C@H](C(=O)N[C@@H](CC(N)=O)C(=O)N[C@@H](Cc1c[nH]c2ccccc12)C(=O)N[C@@H](CC(C)C)C(=O)N[C@@H](CC(C)C)C(=O)N[C@@H](C)C(=O)N[C@@H](CCC(N)=O)C(=O)N[C@@H](CCCCN)C(N)=O)C(C)C
B16: AT148 [hGIP(3-30)NH2-C12/3] (peptide)
peptide: Lauroyl-EGTFISDYSIAMDKIHQQDFVNWLLAQK-NH2
notes: printed with the same formula as AT101 but a different ID and different values
B17: AT113 [hGIP(3-30)NH2-C18/3] (peptide)
peptide: Stearoyl-EGTFISDYSIAMDKIHQQDFVNWLLAQK-NH2

Target: T1, human GIP receptor (human, UniProt P48546 22-466)
T1 construct: whole, on cells; also called hGIPR
T1 sequence (looked up): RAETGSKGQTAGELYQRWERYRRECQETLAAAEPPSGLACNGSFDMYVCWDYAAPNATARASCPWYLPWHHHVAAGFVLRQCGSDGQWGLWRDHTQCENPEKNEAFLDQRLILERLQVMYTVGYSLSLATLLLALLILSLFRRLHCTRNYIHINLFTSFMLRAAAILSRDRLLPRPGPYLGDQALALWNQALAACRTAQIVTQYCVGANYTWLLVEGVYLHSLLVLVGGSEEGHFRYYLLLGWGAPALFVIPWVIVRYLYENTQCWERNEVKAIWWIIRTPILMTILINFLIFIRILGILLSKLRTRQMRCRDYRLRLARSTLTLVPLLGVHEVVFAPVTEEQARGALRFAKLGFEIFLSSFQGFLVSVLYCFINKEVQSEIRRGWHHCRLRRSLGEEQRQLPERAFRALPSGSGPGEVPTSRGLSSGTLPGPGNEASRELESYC
Test: 125I-hGIP competition binding, COS-7 cells expressing hGIPR;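 further: nonspecific binding taken as radioligand bound by untransfected cells, binding buffer with or without 2% HSA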
Description: After incubation, the cells were washed twice in ice-cold binding buffer (+/−2% HSA) and lysed using 200 mM NaOH with 1% SDS for 30 min. Nonspecific binding was determined as the binding of radioactive ligand to untransfected cells.

| Binder | IC50 | log IC50 |
| --- | --- | --- |
| B1 | 1410 nM | -5.9 log M |
| B2 | 55.5 nM | -7.3 log M |
| B3 | 27 nM | -8 log M |
| B4 | 522 nM | -6.3 log M |
| B5 | 1520 nM | -5.8 log M |
| B6 | 59.1 nM | -7.2 log M |
| B7 | 75 nM | -7.1 log M |
| B8 | 4710 nM | -5.3 log M |
| B9 | 1090 nM | -6 log M |
| B10 | 451 nM | -6.3 log M |
| B11 | 674 nM | -6.2 log M |
| B12 | 8.2 nM | – |
| B13 | 205 nM | – |
| B14 | 18 nM | – |
| B15 | 49 nM | – |
| B16 | 24 nM | -8 log M |
| B17 | 41400 nM | -4.4 log M |
